Article PMC8448839
Changes are numbered by the printed parent chain. Names and notes keep the numbering of the source.

B1: GST-Pib2(304-635), P53191 V626A (protein)
chain: LPQPASSTNLNFNSNKHKSNVRQISNPKKPLYIPAVLRKVSETNITNDDLLNATLSSYYKKASNLEHGFNPSKSQSASVQNANNLRIISSQSSVQSNTSSILESYKNKISSYLFPNSIPNSDRINLIPTISNRNSARVNPPTKDHWIPDSKRNSCRYCHKPFTLWERKHHCRHCGDIFCQDHLRHWLYLDSQANFIMINELNNGGINGGGTLCKICDDCLVEYENLSTTNHNANTNEDNINVEEGEDDDNDNRKKLRNYYKNRQMNALFRPKKGGSSQEHATVDRDTTTPIQVKSNDEEADNENTGGEQEEGNDVLGSVIGSAPANWNWSSF
B2: GST-Pib2(304-635), P53191 A628T (protein)
chain: B1 chain with A323V, A325T

Target: TOR complex 1 (TORC1) in lysate of FLAG-Tor1 expressing yeast cells (TS269), P35169;P38873
Assay: pull-down (GST) from yeast cell lysate, western blot quantified
Settings: chain shown with the change, read off a plot, scale: FLAG-Tor1 / GST-Pib2
[1] = without glutamine, parent: est. 1.0

Row | Binder | response (25 mM Gln, parent: est. 6.2) | response [1]
1 | B1 | 2.7 | 0.6
2 | B2 | 3.5 | 0.6
